We go through 13 molecules from patent US20230192860A1 (Bristol-Myers Squibb, published 2023).

To fix the notation:
B1: P1-061029 (antibody, human IgG1, kappa)
heavy: EVQLVESGGGLVQPGKSLRLSCAASGFTLDDYAMHWVRQAPGKGLEWVSGINWNSANIGYADSVKGRFTISRDNAKNSLYLQMNSLRTEDTALYYCAKVPGYSGGWIDAFDVWGQGTMVTVSSASTKGPSVFPLAPSSKSTSGGTAALGCLVKDYFPEPVTVSWNSGALTSGVHTFPAVLQSSGLYSLSSVVTVPSSSLGTQTYICNVNHKPSNTKVDKRVEPKSCDKTHTCPPCPAPEAEGAPSVFLFPPKPKDTLMISRTPEVTCVVVDVSHEDPEVKFNWYVDGVEVHNAKTKPREEQYNSTYRVVSVLTVLHQDWLNGKEYKCKVSNKALPAPIEKTISKAKGQPREPQVYTLPPSREEMTKNQVSLTCLVKGFYPSDIAVEWESNGQPENNYKTTPPVLDSDGSFFLYSKLTVDKSRWQQGNVFSCSVMHEALHNHYTQKSLSLSPG
light: not shown
notes: also called P1-061029-18; P1-061029.IgG1.3
B2: P1-070864 (P1-068761_E30D) (antibody, human IgG1, kappa, V domains shown)
VH: EVQLVESGGGLVQPGKSLRLSCAASGFTLDDEAMHWVRQAPGKGLEWVSGINWNSEEIGYADSVKGRFTISRDNAKNSLYLQMNSLRTEDTALYYCAKVPGYSHGWIDAEDVWGQGTMVTVSS
VL: not shown
notes: also called P1-070864-3
B3: P1-068761 (antibody, human IgG1, kappa)
heavy: B1 heavy with D30E, Y32E, A56E, N57E, G104H, F110E
light: not shown
notes: also called P1-068761-20
B4: P1-068775 (antibody, human IgG1, kappa, V domains shown)
VH: B2 VH with D30E, N52D, V112D
VL: not shown
notes: also called P1-068775-8; 029 progeny
B5: P1-068771 (antibody, human IgG1, kappa, V domains shown)
VH: B2 VH with D30E, E56H, H104G, V112D
VL: not shown
notes: also called P1-068771-10; 029 progeny
B6: P1-068748 (antibody, human IgG1, kappa, V domains shown)
VH: QVQLVESGGGVVQPGRSLRLSCAASGFTFSHHAMHWVRQAPGKGLEWVAIIWYDGSNDDYADSVKGRFTISRDNSKNTLYLQMNSLRAEDTAVYYCARDSGFYDSYYFDYWGQGTLVTVSS
VL: EIVLTQSPATLSLSPGERATLSCRASQSVSSSYLAWYQQKPGQAPRLLIYDASNRATGIPARFSGSGSGTDFTLTISSLEPEDFATYYCQQYNSYPYTFGQGTKLEIKR
notes: IgG1.3; also called P1-068748-6
B7: P1-070868 (P1-068761_E55A) (antibody, human IgG1, kappa, V domains shown)
VH: B2 VH with D30E, E56A
VL: not shown
notes: IgG1.3; also called P1-070868-6
B8: P1-070916 (P1-068767_D52N_E55A) (antibody, human IgG1, kappa, V domains shown)
VH: B2 VH with D30E, E32Y, E56A, E57N, H104G, V112D
VL: not shown
notes: IgG1.3; also called P1-070916-6
B9: P1-070908 (P1-068767_E55A) (antibody, human IgG1, kappa, V domains shown)
VH: B2 VH with D30E, E32Y, N52D, E56A, E57N, H104G, V112D
VL: not shown
notes: IgG1.3; also called P1-070908-6
B10: P1-070906 (P1-068767_D52N) (antibody, human IgG1, kappa, V domains shown)
VH: B2 VH with D30E, E32Y, E57N, H104G, V112D
VL: not shown
notes: IgG1.3; also called P1-070906-6
B11: P1-070914 (P1-068767_E30D_D52N) (antibody, human IgG1, kappa, V domains shown)
VH: B2 VH with E32Y, E57N, H104G, V112D
VL: not shown
notes: IgG1.3; also called P1-070914-3
B12: P1-061520 (41F11 VK_A64G) (antibody, V domains shown)
VH: QVQLVESGGGLVKPGGSLRLSCAASGFTFSDYYMSWIRQAPGKGLEWVSYISNSGSPIYYADSVKGRFTISRDNAKNSLYLQMNSLRAEDTAVYYCARDLPGWYFDLWGRGTLVTVSS
VL: EIVLTQSPATLSLSPGERATLSCRASQSVSSYLAWYQQKPGQAPRLLIYDASNRATGIPARFSGSGSGTDFTLTISSLEPEDFAVYYCQQRNNWPRTFGQGTKVEIKR
notes: tied through the name 41F11 and the A64G change; also called P1-061520-21; VISTA.4.A64G
B13: P1-070976 (41F11_VH_T28P_Y50W_S55E_D95H_L96E_P97E_Y100E; Vk_A64G) (antibody, V domains shown)
VH: B12 VH with T28P, Y50W, S56E, D99H, L100E, P101E, Y104E
VL: EIVLTQSPATLSLSPGERATLSCRASQSVSSYLAWYQQKPGQAPRLLIYDASNRATGIPARFSGSGSGTDFTLTISSLEPEDFAVYYCQQRNNWPRTFGQGTKVEIK
notes: also called P1-070976-11

Residue numbers refer to the chain shown, from its start. Numbers in names are those of the source.

T2 sequence (Q9H7M9 other isoform, or with tags, fused parts or gaps limits assumed): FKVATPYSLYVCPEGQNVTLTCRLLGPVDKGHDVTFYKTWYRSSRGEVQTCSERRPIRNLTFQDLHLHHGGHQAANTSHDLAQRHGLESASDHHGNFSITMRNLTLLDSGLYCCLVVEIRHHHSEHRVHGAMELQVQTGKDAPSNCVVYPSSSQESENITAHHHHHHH

In the first test the target is T1, hVISTA-ECD 6-His tag (human, UniProt Q9H7M9 33-193).
T1 construct: also called monovalent hVISTA-ECD; human VISTA
T1 sequence (Q9H7M9 other isoform, or with tags, fused parts or gaps limits assumed): as above
The experiment in a line: SPR, Ab on Protein A, hVISTA analyte, pH 6.9. On the procedure: (§1) Further binding kinetic experiments were performed at various pHs on VISTA antibodies described herein by SPR as generally described in Example 9 above. Antibodies were normalized to 50 nM concentration in PBST pH 7.4 and captured on a Protein A CM5 chip (ID 4931) by injecting for 45 seconds at a 5 µL/min flow rate. An 8-point human VISTA titration ([…]) was prepared in PBST at pH 7.4, 6.9, 6.45, and 6.0. Titrations were injected over the captured antibodies for 180 seconds at 30 µL/min. Sensorgrams were fit to a 1:1 binding model in T200 evaluation software and the kinetic constants were reported.
(§2) Each table reports the data at one of the four tested pHs (7.4, 6.9, 6.45, and 6.0, respectively). The 8-point hVISTA titration used in these assays was chosen to provide increased confidence in kinetic values reported at neutral pH conditions. A relatively stringent cutoff for non-binding was applied in this assay. Certain progeny of P1-061029 antibody (P1-068757, ‘759, ‘765, ‘771, and ‘775) show no binding to hVISTA at micromolar concentrations at pH 7.4, while ‘761 and ‘767 show no binding to hVISTA at 100 nM at pH 7.4 but do show binding to hVISTA at micromolar concentrations.
For orientation: SPR reads the build-up and loss of mass on a sensor chip optically.
A word on the Kd: it is the equilibrium constant for the complex coming apart. Read a high Kd as weaker binding. The koff is a measure of how fast the partners let go of each other. Low readings indicate a long-lived complex, high ones a short-lived complex. A word on the kon: it is the second-order rate constant of association. A higher kon goes with fast association. The molecule B1 showed a dissociation constant Kd of 7.13 nM, an off-rate (koff) of 0.00416 s⁻¹ and a kon of 583000 M⁻¹ s⁻¹.
Regarding B2, the Kd was determined as 8100 nM, the koff was 0.034 s⁻¹ and the kon came out at 4200 M⁻¹ s⁻¹.
As to B3, the dissociation constant Kd worked out at 142 nM, the koff is 0.00832 s⁻¹ and the kon was found to be 58700 M⁻¹ s⁻¹.

The target in a further test is T1, hVISTA-ECD 6-His tag. The experiment in a line: SPR; kd at pH 6.9 over kd at pH 6.0 (head prints 7.4). On the procedure: as §1, §2
With B1, the “7.4 kd/ 6.0 kd” value was found to be 0.8.
With B2, the “7.4 kd/ 6.0 kd” value turned out to be 4.9.
As for B3, the “7.4 kd/ 6.0 kd” value amounted to 4.1.

The next test concerns the target T1, hVISTA-ECD 6-His tag. Put plainly: SPR; KD at pH 6.45 over KD at pH 6.0 (head prints 7.4).
For the molecule B1, the “7.4 KD/ 6.0 KD” value was determined as 1.8.
Regarding B2, the “7.4 KD/ 6.0 KD” value worked out at 7.4.
For the molecule B4, the “7.4 KD/ 6.0 KD” value stood at 2.8.
Regarding B3, the “7.4 KD/ 6.0 KD” value was found to be 6.
The same measure, in the same setting: with B5 the figure was 11.6.

Another test has as its target T2, monovalent hVISTA-ECD (amino acids 32-193 of SEQ ID NO: 1 with a 7xHis tail) (human, UniProt Q9H7M9 33-193).
T2 construct: analyte of the SPR assays; also called huVISTA-His; human VISTA-ECD
Put plainly: SPR 37C, Ab on Protein A, hVISTA-ECD 50-5 nM, pH 6.0, average. A digest of the protocol:
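Biacore T100 at 37C: antibodies (IgG1.3 format, 25 nM in PBST pH 7.4) captured on Protein A, then 50 - 5 nM monovalent hVISTA-ECD injected in pH 7.4 or 6.0 running buffer. Reference- and blank-subtracted sensorgrams fit to 1:1 model; KD = koff/kon.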
B6 had a dissociation constant Kd of 1 nM, a koff of 0.0015 s⁻¹ and a kon of 1.4e+06 M⁻¹ s⁻¹.

The target of another test is T1, hVISTA-ECD 6-His tag. Put plainly: SPR; KD at pH 6.9 over KD at pH 6.0 (head prints 7.4). On the procedure: as §1, §2
As for B1, the “7.4 KD/ 6.0 KD” value came to 2.5.
In the case of B2, the “7.4 KD/ 6.0 KD” value came out at 523.
For B3, the “7.4 KD/ 6.0 KD” value was 52.4.

Another test addresses T1, hVISTA-ECD 6-His tag. The experiment in a line: SPR; kd at pH 6.45 over kd at pH 6.0 (head prints 7.4). On the procedure: as §1, §2
As to B1, the “7.4 kd/ 6.0 kd” value is 0.9.
As for B2, the “7.4 kd/ 6.0 kd” value is 6.8.
As for B4, the “7.4 kd/ 6.0 kd” value was 1.8.
For B3, the “7.4 kd/ 6.0 kd” value came out at 1.5.
B5: the “7.4 kd/ 6.0 kd” value amounted to 2.2.

The next test concerns the target T2, monovalent hVISTA-ECD (amino acids …). The experiment in a line: SPR, Ab on Protein A, hVISTA 100-7.8 nM, pH 7.4. On the procedure:
as §1
Turning to B7, the affinity, expressed as Kd, was 3400 nM; the koff was 0.044 s⁻¹; the kon was found to be 13000 M⁻¹ s⁻¹.
For B8, the Kd was 3700 nM, the koff came to 0.038 s⁻¹ and the on-rate constant (kon) was 10000 M⁻¹ s⁻¹.
As for B9, the Kd was found to be 350 nM, the koff came to 0.024 s⁻¹ and the kon was 67000 M⁻¹ s⁻¹.
The molecule B10 gave a Kd of 4400 nM, a koff of 0.029 s⁻¹ and a kon of 6500 M⁻¹ s⁻¹.
The molecule B11 showed a Kd of 4200 nM, a koff of 0.035 s⁻¹ and a kon of 8400 M⁻¹ s⁻¹.
As for B6, the Kd amounted to 920 nM, the koff was 0.036 s⁻¹ and the kon was 40000 M⁻¹ s⁻¹.
As for B12, binding was characterised by a dissociation constant (Kd) of 1.42 nM, the koff was 0.000871 s⁻¹ and the association rate constant (kon) amounted to 613000 M⁻¹ s⁻¹.
The like results for B13 were, in that order, 6900 nM, 0.016 s⁻¹ and 2400 M⁻¹ s⁻¹.

The target is the same in another test. The experiment in a line: SPR, pH 7.4 over pH 6.0. As to the method: as §1, §2
As for B7, the “7.4 KD/ 6.0 KD” value is 625 and the “7.4 kd/ 6.0 kd” value came to 18.9.
The like results for B8 were, in that order, 563 and 19.4.
Regarding B9, the “7.4 KD/ 6.0 KD” value stood at 34.5 and the “7.4 kd/ 6.0 kd” value worked out at 8.6.
Regarding B10, the “7.4 KD/ 6.0 KD” value came to 731 and the “7.4 kd/ 6.0 kd” value was determined as 15.3.
As to B11, the “7.4 KD/ 6.0 KD” value is 396 and the “7.4 kd/ 6.0 kd” value stood at 14.6.
As for B6, the “7.4 KD/ 6.0 KD” value turned out to be 212 and the “7.4 kd/ 6.0 kd” value came to 9.9.
Consider B12, for which the “7.4 KD/ 6.0 KD” value was determined as 0.1 and the “7.4 kd/ 6.0 kd” value came to 0.
Regarding B13, the “7.4 KD/ 6.0 KD” value turned out to be 696 and the “7.4 kd/ 6.0 kd” value amounted to 7.

Another test has as its target T1, hVISTA-ECD 6-His tag. The experiment in a line: SPR, Ab on Protein A, hVISTA analyte, pH 6.45.
Molecule B1 returned a Kd of 5.13 nM, a koff of 0.0045 s⁻¹ and a kon of 876000 M⁻¹ s⁻¹.
In turn, B2 yielded a Kd of 110 nM, a koff of 0.046 s⁻¹ and an on-rate (kon) of 410000 M⁻¹ s⁻¹.
B4: the Kd stood at 220 nM, the koff turned out to be 0.017 s⁻¹ and the kon came to 77000 M⁻¹ s⁻¹.
The molecule B3 displayed a Kd of 16.2 nM, a koff of 0.00309 s⁻¹ and a kon of 190000 M⁻¹ s⁻¹.
B5 registered a Kd of 370 nM, an off-rate constant (koff) of 0.022 s⁻¹ and a kon of 61000 M⁻¹ s⁻¹.

Another test addresses T1, hVISTA-ECD 6-His tag. The experiment in a line: SPR, Ab on Protein A, hVISTA analyte, pH 6.0.
B1 showed a Kd of 2.91 nM, a koff of 0.00527 s⁻¹ and a kon of 1.81e+06 M⁻¹ s⁻¹.
The molecule B2 came in with a Kd of 15 nM, an off-rate constant (koff) of 0.0068 s⁻¹ and a kon of 440000 M⁻¹ s⁻¹.
For B4, the Kd worked out at 77 nM, the koff is 0.009 s⁻¹ and the on-rate constant (kon) was 120000 M⁻¹ s⁻¹.
B3 came in with a Kd of 2.71 nM, a koff of 0.00202 s⁻¹ and a kon of 745000 M⁻¹ s⁻¹.
Molecule B5 came in with a dissociation constant (Kd) of 32 nM, a koff of 0.01 s⁻¹ and a kon of 320000 M⁻¹ s⁻¹.
